Legend:
Format in all cases: cell-based, human
[1] = system: wild-type and variant SNAP-GIPR; test: Single-concentration GIP cAMP response by HTRF in INS-1 cells; conditions: Fig S3E, mean
Method: All variants were tested in parallel on each occasion to control for transfection efficiency differences between experiments.

[2] = system: wild-type and variant SNAP-GIPR; test: Surface SNAP-GIPR expression (SNAP-tag labelling) in AD293 cells; conditions: for AD293 Surface: Fig S3E, mean; for Surface SNAP-GIPR expression: sheet Fig 1C;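 on all read-outs here: scaled to the experimental average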
Summary of the method: (§1)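 Read-out: whole-cell fluorescence of surface-only SNAP label (Alexa Fluor 647, 500 nM, 10 min, RT), wide-field 20X, several FOVs per well. Flat-field corrected, phase-contrast masked, nontransfected-well signal subtracted; normalized to experiment mean or wild-type.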

[3] = system: wild-type and variant SNAP-GIPR; test: Surface SNAP-GIPR expression (SNAP-tag labelling) in INS-1 cells; conditions: Fig 4G; Mean
Summary of the method: as §1

B1: WT (protein, UniProt P48546 22-466, looked up)
Gastric inhibitory …: RAETGSKGQTAGELYQRWERYRRECQETLAAAEPPSGLACNGSFDMYVCWDYAAPNATARASCPWYLPWHHHVAAGFVLRQCGSDGQWGLWRDHTQCENPEKNEAFLDQRLILERLQVMYTVGYSLSLATLLLALLILSLFRRLHCTRNYIHINLFTSFMLRAAAILSRDRLLPRPGPYLGDQALALWNQALAACRTAQIVTQYCVGANYTWLLVEGVYLHSLLVLVGGSEEGHFRYYLLLGWGAPALFVIPWVIVRYLYENTQCWERNEVKAIWWIIRTPILMTILINFLIFIRILGILLSKLRTRQMRCRDYRLRLARSTLTLVPLLGVHEVVFAPVTEEQARGALRFAKLGFEIFLSSFQGFLVSVLYCFINKEVQSEIRRGWHHCRLRRSLGEEQRQLPERAFRALPSGSGPGEVPTSRGLSSGTLPGPGNEASRELESYC
INS-1 cAMP (100 nM) [1]: 1.606
AD293 Surface ([2]; column repeated, paired with cAMP 100 nM): 1.574
AD293 Surface ([2]; paired with cAMP 100 pM): 1.574
Surface SNAP-GIPR expression ([2]; replicate 1): 1.413
Surface SNAP-GIPR expression ([2]; replicate 2): 1.272
Surface SNAP-GIPR expression ([2]; replicate 3): 1.88
Surface SNAP-GIPR expression ([2]; replicate 4): 1.444
Surface SNAP-GIPR expression ([2]; replicate 5): 1.509
Surface SNAP-GIPR expression ([2]; replicate 6): 1.344
Surface SNAP-GIPR expression ([2]; replicate 7): 1.891
Surface SNAP-GIPR expression ([2]; replicate 8): 1.028
Surface SNAP-GIPR expression ([2]; replicate 9): 1.591
Surface SNAP-GIPR expression ([2]; replicate 10): 1.397
Surface SNAP-GIPR expression ([2]; replicate 11): 1.544
Surface SNAP-GIPR expression ([2]; replicate 12): 1.527
Surface SNAP-GIPR expression ([2]; replicate 13): 1.575
Surface SNAP-GIPR expression ([2]; replicate 14): 1.588
Surface SNAP-GIPR expression ([2]; replicate 15): 1.562
Surface SNAP-GIPR expression ([2]; replicate 16): 1.285
Surface SNAP-GIPR expression ([2]; replicate 17): 1.371
Surface SNAP-GIPR expression ([2]; replicate 18): 1.43
Surface SNAP-GIPR expression ([2]; replicate 19): 1.701
Surface SNAP-GIPR expression ([2]; replicate 20): 1.486
Surface SNAP-GIPR expression ([2]; replicate 21): 1.598
Surface SNAP-GIPR expression ([2]; replicate 22): 1.477
Surface SNAP-GIPR expression ([2]; replicate 23): 1.449
Surface SNAP-GIPR expression ([2]; replicate 24): 1.623
Surface SNAP-GIPR expression ([2]; replicate 25): 1.241
Surface SNAP-GIPR expression ([2]; replicate 26): 1.004
Surface SNAP-GIPR expression ([2]; replicate 27): 2.237
Surface SNAP-GIPR expression ([2]; replicate 28): 2.105
Surface SNAP-GIPR expression ([2]; replicate 29): 1.748
Surface SNAP-GIPR expression ([2]; replicate 30): 1.831
Surface SNAP-GIPR expression ([2]; replicate 31): 1.807
Surface SNAP-GIPR expression ([2]; replicate 32): 1.314
Surface SNAP-GIPR expression ([2]; replicate 33): 1.406
Surface SNAP-GIPR expression ([2]; replicate 34): 1.597
Surface SNAP-GIPR expression ([2]; replicate 35): 1.369
Surface SNAP-GIPR expression ([2]; replicate 36): 1.658
Surface SNAP-GIPR expression ([2]; replicate 37): 2.437
Surface SNAP-GIPR expression ([2]; replicate 38): 2.543
Surface SNAP-GIPR expression ([2]; replicate 39): 1.55
Surface SNAP-GIPR expression ([2]; replicate 40): 1.34
Surface SNAP-GIPR expression ([2]; replicate 41): 1.346
Surface expression [3]: 1.4278

Source: PMC13544220, “Glycemic and bodyweight effects of GIPR coding variation reflect differences in surface expression and intrinsic functional impairment” (Science Advances, 2026)
